5 molecules from PMC10281000 (Chembiochem : a European journal of chemical biology, 2021) can be followed below.

Data set [1] relates to O=C(O)CCl. The data set can be described thus: purified protein. To be noted: pH 8.5; 30.0 °C.
Data set [2] has as its target Rha0230 (Rhodococcus jostii, UniProt Q0SK70). To be noted: 100 mM Tris-SO4, pH 8.5, 30 °C; defluorination.
In data set [3] the test system is Bpro0530. The conditions noted are these: 100 mM Tris-SO4, pH 8.5, 30 °C; defluorination.
Data set [4] addresses ST2570 (Sulfurisphaera tokodaii, UniProt Q96XE7). The conditions noted are these: 100 mM Tris-SO4, pH 8.5, 30 °C; defluorination.
Data set [5] concerns the molecule itself. The data set can be described thus: crystal structure.

ST2570 (Sulfurisphaera tokodaii str. 7): in data set [1], the Km came to 0.00353 ± 3e-05 mM and the kcat/Km is 73000 ± 1100 M⁻¹ s⁻¹.

With `O=C(O)CF` [fluoroacetate], the results for the Km in data set [2], in data set [3] and in data set [4] were 18 ± 3 mM, 20.3 ± 0.3 mM and 2.4 ± 0.7 mM, respectively.

Take Rha0230 (Rhodococcus jostii RHA1): in data set [1], the Michaelis-Menten constant (Km) came out at 18 ± 2 mM and the catalytic efficiency (kcat/Km) was determined as 37 ± 6 M⁻¹ s⁻¹.

As for Rha0230 (Rhodococcus jostii RHA1; Y61F), in data set [1], the Michaelis-Menten constant (Km) is 14 ± 2 mM and the kcat/Km was determined as 73 ± 13 M⁻¹ s⁻¹.

B1: PA0810, L-2-haloacid dehalogenase from Pseudomonas aeruginosa PAO1 (enzyme)
chain: MRAILFDVFGTLVDWRSSLIEQFQALERELGGTLPCVELTDRWRQQYKPAMDRVRNGQAPWQHLDQLHRQSLEALAGEFGLALDEALLQRITGFWHRLRPWPDTLAGMHALKADYWLAALSNGNTALMLDVARHAGLPWDMLLCADLFGHYKPDPQVYLGACRLLDLPPQEVMLCAAHNYDLKAARALGLKTAFIARPLEYGPGQSQDLAAEQDWDLIASDLLDLHRQLAASA
Turning to B1, the binding result in data set [5] is on record as “binds”.

One may read the Km as the concentration of substrate that gives half-maximal velocity. The kcat/Km is the second-order rate constant that governs catalysis at low substrate concentration.
